Format in all cases: functional, cell-based
Substrate in data set [1]: N[C@H](C(=O)O)[C@H]1CC[C@@H]1C(=O)O
Put plainly: (§1) Substrate activity at human EAAT3 expressed in HEK293 cells by FLIPR membrane potential assay.

Substrate in data set [2]: N[C@@H](CCC(=O)O)C(=O)O
The description is as §1.

Substrate in data set [3]: N[C@H](C(=O)O)[C@H]1CC[C@@H]1C(=O)O
Description: (§2) Substrate activity at human EAAT1 expressed in HEK293 cells by FLIPR membrane potential assay.

Substrate in data set [4]: N[C@@H](CCC(=O)O)C(=O)O
The description is as §2.

Substrate in data set [5]: N[C@H](C(=O)O)[C@@H]1CC[C@H]1C(=O)O
The description is as §2.

B1: Excitatory amino acid transporter 3 (Homo sapiens), P43005 (protein)
chain: MGKPARKGCEWKRFLKNNWVLLSTVAAVVLGITTGVLVREHSNLSTLEKFYFAFPGEILMRMLKLIILPLIISSMITGVAALDSNVSGKIGLRAVVYYFCTTLIAVILGIVLVVSIKPGVTQKVGEIARTGSTPEVSTVDAMLDLIRNMFPENLVQACFQQYKTKREEVKPPSDPEMNMTEESFTAVMTTAISKNKTKEYKIVGMYSDGINVLGLIVFCLVFGLVIGKMGEKGQILVDFFNALSDATMKIVQIIMCYMPLGILFLIAGKIIEVEDWEIFRKLGLYMATVLTGLAIHSIVILPLIYFIVVRKNPFRFAMGMAQALLTALMISSSSATLPVTFRCAEENNQVDKRITRFVLPVGATINMDGTALYEAVAAVFIAQLNDLDLGIGQIITISITATSASIGAAGVPQAGLVTMVIVLSAVGLPAEDVTLIIAVDWLLDRFRTMVNVLGDAFGTGIVEKLSKKELEQMDVSSEVNIVNPFALESTILDNEDSDTKKSYVNGGFAVDKSDTISFTQTSQF
On to B1, for which the figures for the Michaelis-Menten constant (Km) in data set [1] and in data set [2] were 300 µM and 9.9 µM, respectively.

B2: Excitatory amino acid transporter 1 (Homo sapiens), P43003 (protein)
chain: MTKSNGEEPKMGGRMERFQQGVRKRTLLAKKKVQNITKEDVKSYLFRNAFVLLTVTAVIVGTILGFTLRPYRMSYREVKYFSFPGELLMRMLQMLVLPLIISSLVTGMAALDSKASGKMGMRAVVYYMTTTIIAVVIGIIIVIIIHPGKGTKENMHREGKIVRVTAADAFLDLIRNMFPPNLVEACFKQFKTNYEKRSFKVPIQANETLVGAVINNVSEAMETLTRITEELVPVPGSVNGVNALGLVVFSMCFGFVIGNMKEQGQALREFFDSLNEAIMRLVAVIMWYAPVGILFLIAGKIVEMEDMGVIGGQLAMYTVTVIVGLLIHAVIVLPLLYFLVTRKNPWVFIGGLLQALITALGTSSSSATLPITFKCLEENNGVDKRVTRFVLPVGATINMDGTALYEALAAIFIAQVNNFELNFGQIITISITATAASIGAAGIPQAGLVTMVIVLTSVGLPTDDITLIIAVDWFLDRLRTTTNVLGDSLGAGIVEHLSRHELKNRDVEMGNSVIEENEMKKPYQLIAQDNETEKPIDSETKM
Take B2: the figures for the Km in data set [3], in data set [4] and in data set [5] were 300 µM, 7.9 µM and 96 µM, respectively.

These data come from ChEMBL document CHEMBL1137310, “Stereoselective chemoenzymatic synthesis of the four stereoisomers of l-2-(2-carboxycyclobutyl)glycine and pharmacological characterization at human excitatory amino acid transporter subtypes 1, 2, and 3” (J Med Chem, 2006).
